{"source": "patent US20200131227A1", "about": "“POLYPEPTIDE WITH TUMOUR BINDING ACTIVITY” (RUPRECHT-KARLS-UNIVERSITÄT HEIDELBERG, priority 2017, published 2020)", "key": {"carcinoma cell lines": {"test_system": "carcinoma cell lines", "assay": "In vitro binding of radiolabeled peptides to several carcinoma cell lines", "format": "cell-based, human", "outline": "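Cells seeded 48 h were incubated with ^125I-labeled peptide in serum-free medium for 10 or 60 min, alone or with unlabeled peptide (10^−4 to 10^−11 M); HNO97 kinetics, efflux and internalization (37° C and 4° C, acid strip) used ^177Lu-DOTA-SFITGv6. Gamma counting gave % applied dose per 10^6 cells.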"}, "[1]": {"assay": "Biodistribution, HNO97 xenografts", "conditions": "Balb/c nude, mouse, iv, 1 MBq, total radioactivity; for tissue to tissue ratio at 0.5 h / tissue to tissue ratio at 1 h / tissue to tissue ratio at 2 h / tissue to tissue ratio at 4 h / tissue to tissue ratio at 6 h: HNO97 xenografts; for tissue to tissue ratio at 0.5 h: 30 min", "description": "All experiments were conducted in compliance with the German animal protection laws. Eight week old Balb c/c nude mice (Charles River Laboratories) were inoculated subcutaneously at the right shoulder with 5×10^6 HNO97 cells in BD MatriGel™ (BD Bioscience). Xenografts were grown to a tumor diameter of 10-15 mm. For small animal-PET imaging mice were anesthetized using isoflurane inhalation and injected via tail-vein with 50 MBq (2 nmol) of the ^68Ga-labeled DOTA-SFITGv6 peptide (see above) solution in 100 μL PBS. Images were recorded on an Inveon small-animal PET scanner (Siemens) using a 60 min emission scan in list mode and a 10 min transmission scan. Images were taken in 3-dimensional (3D) mode and reconstructed iteratively with a fully 3D algorithm from a 256×256 matrix for viewing transaxial, coronal, and sagittal slices of 0.9 mm thickness. Pixel size was 0.38×0.38×0.79 mm3 and transaxial resolution obtained was 0.9 mm. For blocking experiments 100 μL of a 1 mM aqueous solution of SFITGv6 was pre-administered intraperitoneally 30 min before injection of the radiolabeled peptide. Biodistribution studies were performed after administration of 100 μL of a 20 nM ^177Lu-DOTA-SFITGv6 solution (1 MBq) as an intravenous bolus injection into the tail vein of the mice. After different time points (30 min to 6 hours) three animals, respectively, were sacrificed. Peripheral blood, heart, lung, spleen, liver, kidneys, muscle, brain, intestine, and injection site (tail, after intravenous injection only) were collected and weighted. Tissue-associated radioactivity was measured in a gamma counter (Berthold LB951G) and expressed as percentage of the injected dose per gram tissue (% ID/g).\nAll animal experiments were conducted in compliance with the German animal protection laws. For in vivo small animal PET imaging and organ distribution studies eight-week old Balb/c nude mice (Charles River Laboratories) were inoculated subcutaneously at the right shoulder with a total of 5×10^6 tumor cells in MatriGel (BD Bioscience). Xenografts were grown until a tumor diameter of 10-15 mm was reached.\n3-dimensional (3D) PET images of whole mice were captured by the Siemens Inveon PET scanner as described in Example 1. To assess the biodistribution 100 μL of a 20 nM solution (1 MBq) of ^177Lu-DOTA-SFLAP3 and ^177Lu-DOTA-SFITGv6 were administered as an intravenous bolus injection into the tail vein of mice. For each time point (30 min to 6 hours) we sacrificed a total of three animals, and subsequently collected peripheral blood, heart, lung, spleen, liver, kidneys, muscle, brain, and intestine. Tissues were weighed and respective radioactivity was measured by a gamma counter (LB951G, Berthold Technologies). Values were expressed as percentage of the injected dose radioactivity (MBq) per gram tissue (% ID/g)."}, "[2]": {"conditions": "in vivo, uptake in the kidneys, hardly any clearance"}, "[3]": {"conditions": "in vivo, Tumor-to-Intestine ratio"}}, "note": "Where a SMILES comes first, the peptide text is derived from it. Bridges are numbered along the chain shown (N, C = ends). The star is where a group is joined. DOTA = O=C(O)CN1CCN(CC(=O)O)CCN(CC(=O)*)CCN(CC(=O)O)CC1"}
{"smiles": "CSCC[C@@H]1NC(=O)[C@H](CC(C)C)NC(=O)[C@H](CC(=O)O)NC(=O)CNC(=O)[C@H](CCCNC(=N)N)NC(=O)[C@H](Cc2ccccc2)NC(=O)[C@H]([C@@H](C)O)NC(=O)[C@@H](NC(=O)[C@H](CCCNC(=N)N)NC(=O)CN)CSSC[C@@H](C(=O)N[C@@H](Cc2ccc(O)cc2)C(=O)N2CCC[C@H]2C(=O)N[C@@H](CC(=O)O)C(=O)O)NC(=O)[C@H](CC(C)C)NC(=O)[C@H](CCC(N)=O)NC1=O", "note": "[SFITGv6, NH2-G-R-C1-T-F-R-G-D-L-M-Q-L-C1-Y-P-D-COOH] (H-GRCTFRGDLMQLCYPD-OH; disulfide 3-13)", "values": [{"measurement": "binding after substitution of lysine (K) to leucine (L) in FRGDKMQL", "setting": "carcinoma cell lines; HNO97 and UM-UC-5 cells, ^125I-labeled, 60 min, versus SFPF-10", "value": "substantially increased the binding"}, {"measurement": "tissue uptake", "setting": "[1]; in vivo, activity in the blood", "value": "< 1", "unit": "%ID/g"}, {"measurement": "tissue uptake", "setting": "[1]; [2]", "value": "~42", "unit": "%ID/g"}, {"measurement": "tissue uptake at 0.5 h", "setting": "[1]", "value": "> 6", "unit": "%ID/g"}, {"measurement": "tissue uptake at 6 h", "setting": "[1]", "value": 2.4, "unit": "%ID/g"}]}
{"smiles": "CSCC[C@@H]1NC(=O)[C@H](CC(C)C)NC(=O)[C@H](CC(=O)O)NC(=O)CNC(=O)[C@H](CCCNC(=N)N)NC(=O)[C@H](Cc2ccccc2)NC(=O)[C@H]([C@@H](C)O)NC(=O)[C@@H](NC(=O)[C@H](CCCNC(=N)N)NC(=O)CNC(=O)CN2CCN(CC(=O)O)CCN(CC(=O)O)CCN(CC(=O)O)CC2)CSSC[C@@H](C(=O)N[C@@H](Cc2ccc(O)cc2)C(=O)N2CCC[C@H]2C(=O)N[C@@H](CC(=O)O)C(=O)O)NC(=O)[C@H](CC(C)C)NC(=O)[C@H](CCC(N)=O)NC1=O", "note": "[^177Lu-DOTA-SFITGv6, metal not drawn] ({DOTA}-GRCTFRGDLMQLCYPD-OH; disulfide 3-13)", "values": [{"measurement": "tissue to tissue ratio at 0.5 h", "setting": "[1]; in vivo, Tumor-to-Blood ratio", "value": "6.89 ± 1"}, {"measurement": "tissue to tissue ratio at 1 h", "setting": "[1]; in vivo, Tumor-to-Blood ratio", "value": "12.9 ± 0.83"}, {"measurement": "tissue to tissue ratio at 2 h", "setting": "[1]; in vivo, Tumor-to-Blood ratio", "value": "59.5 ± 1.04"}, {"measurement": "tissue to tissue ratio at 4 h", "setting": "[1]; in vivo, Tumor-to-Blood ratio", "value": "98.86 ± 0.35"}, {"measurement": "tissue to tissue ratio at 6 h", "setting": "[1]; in vivo, Tumor-to-Blood ratio", "value": "99.15 ± 0.51"}, {"measurement": "tissue to tissue ratio at 0.5 h", "setting": "[1]; in vivo, Tumor-to-Brain ratio", "value": "190.9 ± 1"}, {"measurement": "tissue to tissue ratio at 1 h", "setting": "[1]; in vivo, Tumor-to-Brain ratio", "value": "198.6 ± 0.82"}, {"measurement": "tissue to tissue ratio at 2 h", "setting": "[1]; in vivo, Tumor-to-Brain ratio", "value": "250.3 ± 1.04"}, {"measurement": "tissue to tissue ratio at 4 h", "setting": "[1]; in vivo, Tumor-to-Brain ratio", "value": "372.6 ± 0.35"}, {"measurement": "tissue to tissue ratio at 6 h", "setting": "[1]; in vivo, Tumor-to-Brain ratio", "value": "424.9 ± 0.51"}, {"measurement": "tissue to tissue ratio at 0.5 h", "setting": "[1]; in vivo, Tumor-to-Heart ratio", "value": "15.1 ± 1"}, {"measurement": "tissue to tissue ratio at 1 h", "setting": "[1]; in vivo, Tumor-to-Heart ratio", "value": "21.9 ± 0.82"}, {"measurement": "tissue to tissue ratio at 2 h", "setting": "[1]; in vivo, Tumor-to-Heart ratio", "value": "48.8 ± 1.04"}, {"measurement": "tissue to tissue ratio at 4 h", "setting": "[1]; in vivo, Tumor-to-Heart ratio", "value": "67.5 ± 0.36"}, {"measurement": "tissue to tissue ratio at 6 h", "setting": "[1]; in vivo, Tumor-to-Heart ratio", "value": "78.99 ± 0.51"}, {"measurement": "tissue to tissue ratio at 0.5 h", "setting": "[1]; [3]", "value": "4.59 ± 1"}, {"measurement": "tissue to tissue ratio at 1 h", "setting": "[1]; [3]", "value": "3.42 ± 0.83"}, {"measurement": "tissue to tissue ratio at 2 h", "setting": "[1]; [3]", "value": "9.44 ± 1.05"}, {"measurement": "tissue to tissue ratio at 4 h", "setting": "[1]; [3]", "value": "10.7 ± 0.36"}, {"measurement": "tissue to tissue ratio at 6 h", "setting": "[1]; [3]", "value": "7.82 ± 0.51"}, {"measurement": "tissue to tissue ratio at 0.5 h", "setting": "[1]; in vivo, Tumor-to-Kidney ratio", "value": "0.15 ± 3.73"}, {"measurement": "tissue to tissue ratio at 1 h", "setting": "[1]; in vivo, Tumor-to-Kidney ratio", "value": "0.12 ± 2.21"}, {"measurement": "tissue to tissue ratio at 2 h", "setting": "[1]; in vivo, Tumor-to-Kidney ratio", "value": "0.1 ± 3.11"}, {"measurement": "tissue to tissue ratio at 4 h", "setting": "[1]; in vivo, Tumor-to-Kidney ratio", "value": "0.07 ± 2.69"}, {"measurement": "tissue to tissue ratio at 6 h", "setting": "[1]; in vivo, Tumor-to-Kidney ratio", "value": "0.06 ± 2.58"}, {"measurement": "tissue to tissue ratio at 0.5 h", "setting": "[1]; in vivo, Tumor-to-Liver ratio", "value": "20.8 ± 1"}, {"measurement": "tissue to tissue ratio at 1 h", "setting": "[1]; in vivo, Tumor-to-Liver ratio", "value": "21.5 ± 0.82"}, {"measurement": "tissue to tissue ratio at 2 h", "setting": "[1]; in vivo, Tumor-to-Liver ratio", "value": "25.8 ± 1.04"}, {"measurement": "tissue to tissue ratio at 4 h", "setting": "[1]; in vivo, Tumor-to-Liver ratio", "value": "32.2 ± 0.36"}, {"measurement": "tissue to tissue ratio at 6 h", "setting": "[1]; in vivo, Tumor-to-Liver ratio", "value": "17.6 ± 0.51"}, {"measurement": "tissue to tissue ratio at 0.5 h", "setting": "[1]; in vivo, Tumor-to-Lung ratio", "value": "2.29 ± 1.14"}, {"measurement": "tissue to tissue ratio at 1 h", "setting": "[1]; in vivo, Tumor-to-Lung ratio", "value": "3.81 ± 0.82"}, {"measurement": "tissue to tissue ratio at 2 h", "setting": "[1]; in vivo, Tumor-to-Lung ratio", "value": "9.13 ± 1.05"}, {"measurement": "tissue to tissue ratio at 4 h", "setting": "[1]; in vivo, Tumor-to-Lung ratio", "value": "10.3 ± 0.36"}, {"measurement": "tissue to tissue ratio at 6 h", "setting": "[1]; in vivo, Tumor-to-Lung ratio", "value": "9.73 ± 0.51"}, {"measurement": "tissue to tissue ratio at 0.5 h", "setting": "[1]; in vivo, Tumor-to-Muscle ratio", "value": "13.9 ± 1"}, {"measurement": "tissue to tissue ratio at 1 h", "setting": "[1]; in vivo, Tumor-to-Muscle ratio", "value": "16.1 ± 0.83"}, {"measurement": "tissue to tissue ratio at 2 h", "setting": "[1]; in vivo, Tumor-to-Muscle ratio", "value": "22.7 ± 1.04"}, {"measurement": "tissue to tissue ratio at 4 h", "setting": "[1]; in vivo, Tumor-to-Muscle ratio", "value": "32.3 ± 0.36"}, {"measurement": "tissue to tissue ratio at 6 h", "setting": "[1]; in vivo, Tumor-to-Muscle ratio", "value": "21.9 ± 0.51"}, {"measurement": "tissue to tissue ratio at 0.5 h", "setting": "[1]; in vivo, Tumor-to-Spleen ratio", "value": "21.1 ± 1"}, {"measurement": "tissue to tissue ratio at 1 h", "setting": "[1]; in vivo, Tumor-to-Spleen ratio", "value": "27.4 ± 0.82"}, {"measurement": "tissue to tissue ratio at 2 h", "setting": "[1]; in vivo, Tumor-to-Spleen ratio", "value": "38.4 ± 1.04"}, {"measurement": "tissue to tissue ratio at 4 h", "setting": "[1]; in vivo, Tumor-to-Spleen ratio", "value": "51.78 ± 0.36"}, {"measurement": "tissue to tissue ratio at 6 h", "setting": "[1]; in vivo, Tumor-to-Spleen ratio", "value": "35.4 ± 0.51"}, {"measurement": "tissue uptake", "setting": "[1]; [2]", "value": "~42", "unit": "%ID/g"}, {"measurement": "tissue uptake at 0.5 h", "setting": "[1]", "value": "6.22 ± 1", "unit": "%ID/g"}, {"measurement": "tissue uptake at 6 h", "setting": "[1]", "value": "2.43 ± 0.51", "unit": "%ID/g"}]}
{"smiles": "CC(C)C[C@@H]1NC(=O)[C@H](CC(=O)O)NC(=O)CNC(=O)[C@H](CCCNC(=N)N)NC(=O)CNC(=O)[C@H]([C@@H](C)O)NC(=O)[C@@H](NC(=O)[C@H](CCCNC(=N)N)NC(=O)CNC(=O)CN2CCN(CC(=O)O)CCN(CC(=O)O)CCN(CC(=O)O)CC2)CSSC[C@@H](C(=O)N[C@@H](Cc2ccc(O)cc2)C(=O)N2CCC[C@H]2C(=O)N[C@@H](CC(=O)O)C(N)=O)NC(=O)[C@H](CC(C)C)NC(=O)[C@H](CCCNC(=N)N)NC(=O)CNC1=O", "note": "[^177Lu-DOTA-SFLAP3, metal not drawn] ({DOTA}-GRCTGRGDLGRLCYPD-NH2; disulfide 3-13; N-terminus and C-terminus assumed)", "values": [{"measurement": "binding/internalization late in efflux experiment", "setting": "carcinoma cell lines; after 240 min (FIG. 17C)", "value": "moderate renewed increase of binding/internalization"}, {"measurement": "tissue uptake at 1 h", "setting": "[1]; in vivo", "value": "9.1 ± 1.2", "unit": "%ID/g"}, {"measurement": "tissue uptake at 6 h", "setting": "[1]; in vivo", "value": "5.8 ± 1.44", "unit": "%ID/g"}]}
